Experimental findings from the RNAGym collection of RNA variant scans (doi:10.7554/elife.80360) are described below.

First the molecules themselves.
B1: Twister Ribozyme (parent)
chain: AACACUGCCAAUGCCGGUCCCAAGCCCGGAUAAAAGUGGAGGGGGCGG

This series covers variants of B1. Kind of series: self-cleavage, relative activity (ratio to wild type); higher = more cleavage; co-transcriptional.
Consider C20U G36C, for which the self-cleavage was 0.135.

For the variant G17A A35U, the self-cleavage stood at 0.869.

With A23C A33C, the self-cleavage is 0.0964.

As for U12C C15G, the self-cleavage came out at 0.0964.

For G13C C20U, the self-cleavage came to 0.125.

Consider G7U C9U, for which the self-cleavage was 0.0542.

Regarding C27U A40G, the self-cleavage was 0.119.

Consider G13C G43U, for which the self-cleavage was 0.128.

On to C8U A40C, for which the self-cleavage worked out at 0.202.

As for A1C G38A, the self-cleavage was 0.189.

C3A A30U: the self-cleavage came out at 0.184.

In the case of U6A C27A, the self-cleavage worked out at 0.119.

Take C3G G16U: the self-cleavage was found to be 0.608.

Take C14G C46G: the self-cleavage stood at 0.101.

For A22C G42A, the self-cleavage worked out at 0.215.

As for C9U G28C, the self-cleavage was 0.549.

For U37C G47U, the self-cleavage came out at 0.585.

On to C26G G36C, for which the self-cleavage came out at 0.0652.

G16A A34U: the self-cleavage came to 0.417.

In the case of G13U A30G, the self-cleavage was 0.926.

For the variant C15U C46G, the self-cleavage is 0.887.

In the case of G16C C21G, the self-cleavage was found to be 0.0586.

Turning to A1U A30C, the self-cleavage stood at 0.0658.

In the case of C8A G44A, the self-cleavage worked out at 0.555.

Regarding G38U G44U, the self-cleavage is 0.915.

Turning to A22G G48C, the self-cleavage was found to be 0.318.

Regarding C14U G29A, the self-cleavage was determined as 1.06.

On to G7C G47C, for which the self-cleavage came out at 0.122.

As for A33U U37A, the self-cleavage was determined as 0.688.

With A10C G39U, the self-cleavage turned out to be 0.148.

Turning to C15G G48U, the self-cleavage was 0.0875.

For the variant A33C G48A, the self-cleavage stood at 0.867.

Turning to C3U C14U, the self-cleavage turned out to be 0.376.

Turning to G29U G42C, the self-cleavage was 0.388.

In the case of U18G A34G, the self-cleavage turned out to be 0.079.

On to A2U G17U, for which the self-cleavage came out at 0.0826.

As to C9G G17U, the self-cleavage turned out to be 0.0981.

As to U6C G39C, the self-cleavage came out at 0.136.

Regarding G36U U37C, the self-cleavage amounted to 0.283.

C25G G41U: the self-cleavage came out at 0.133.

On to G7U U12C, for which the self-cleavage worked out at 0.0693.

Turning to G29U A35U, the self-cleavage was found to be 0.892.

Regarding A1G C9A, the self-cleavage was determined as 0.226.

C14A A40U: the self-cleavage stood at 0.143.

With A22G A32U, the self-cleavage is 0.278.

Consider A22C A35U, for which the self-cleavage was found to be 0.962.

Take G16U G43C: the self-cleavage was 0.183.

Consider A34C G42C, for which the self-cleavage is 0.184.

On to C3U C20G, for which the self-cleavage is 0.0703.

Turning to A2G G48A, the self-cleavage came out at 0.217.

As for A32G A40C, the self-cleavage came to 0.226.

As to C9U G48A, the self-cleavage is 0.491.

Turning to A2G G44C, the self-cleavage was found to be 0.212.

On to A22U A33C, for which the self-cleavage turned out to be 0.737.

Turning to G39C G47U, the self-cleavage came out at 0.163.

For A10G A35U, the self-cleavage was 0.943.

On to A10G A35C, for which the self-cleavage came to 1.17.

As to C8A A35G, the self-cleavage was found to be 0.226.

Regarding G29C A35G, the self-cleavage is 0.544.

Regarding C21U A40C, the self-cleavage is 0.109.

As to A34G U37A, the self-cleavage is 0.444.

In the case of A1G G38C, the self-cleavage came to 0.304.

As to C5A G42U, the self-cleavage came out at 0.138.

With G13A G16A, the self-cleavage was 0.352.

As to A40U G41C, the self-cleavage was found to be 0.17.

On to C3G G24C, for which the self-cleavage worked out at 0.0852.

U6G C15G: the self-cleavage stood at 0.0391.

In the case of C21U G41A, the self-cleavage amounted to 0.641.

Consider C8A A32G, for which the self-cleavage was 0.331.

On to A2C G38A, for which the self-cleavage was determined as 0.102.

For the variant A1G G45U, the self-cleavage amounted to 0.274.

A11U U18C: the self-cleavage was 0.617.

As for C9A A35U, the self-cleavage amounted to 0.628.

Take C19U G29U: the self-cleavage was determined as 0.836.

As to A1C C3G, the self-cleavage was found to be 0.161.

Take A22U G44U: the self-cleavage is 0.812.

In the case of G13A C20G, the self-cleavage was determined as 0.115.

As to G38U G45C, the self-cleavage came to 0.407.

In the case of C3G C21A, the self-cleavage came out at 0.0645.

Consider G16C G17U, for which the self-cleavage worked out at 0.174.

For the variant A10U U18C, the self-cleavage came to 0.506.

In the case of C15A C21G, the self-cleavage came out at 0.0777.

For C8U U37C, the self-cleavage is 0.284.

With A11G, the self-cleavage was found to be 0.932.

With G13U G28U, the self-cleavage amounted to 0.466.

In the case of G13A G39U, the self-cleavage came out at 0.171.

For the variant C21A G43A, the self-cleavage was found to be 0.0637.

Regarding A10G C25G, the self-cleavage was determined as 0.409.

For the variant U18G G39A, the self-cleavage came to 0.107.

For G29A G48U, the self-cleavage was 0.916.

For the variant U12C G42U, the self-cleavage is 0.331.

G24U G45A: the self-cleavage came to 0.0796.

As for A22C A33U, the self-cleavage worked out at 0.983.

For the variant C21U A22C, the self-cleavage was 0.0923.

As to C21G G43A, the self-cleavage was found to be 0.0243.

Regarding A1G C15U, the self-cleavage came out at 0.405.

C3G G42C: the self-cleavage was found to be 0.128.

Take U6C A11C: the self-cleavage was found to be 0.292.

In the case of U6C A11U, the self-cleavage turned out to be 0.673.

Regarding A2C A32U, the self-cleavage was found to be 0.101.

Turning to G7C C15G, the self-cleavage is 0.0181.

On to G42C G48U, for which the self-cleavage was determined as 0.561.

On to A35C G47U, for which the self-cleavage was 0.932.

As to A22U G28A, the self-cleavage turned out to be 0.485.

G7C C27G: the self-cleavage was determined as 0.073.

As for A23G G29A, the self-cleavage was determined as 0.307.

For A2C C27G, the self-cleavage was found to be 0.0549.

For C26G U31C, the self-cleavage came out at 0.165.

U6A G29A: the self-cleavage was 0.787.

For the variant C19U G47U, the self-cleavage came to 0.39.

For the variant G7A C26G, the self-cleavage worked out at 0.0601.

As to C14G C19U, the self-cleavage came out at 0.426.

Take G16A G29A: the self-cleavage was 0.639.

As for G7U G45U, the self-cleavage is 0.087.

As for G43A G48C, the self-cleavage amounted to 0.354.

Take A10U C15G: the self-cleavage turned out to be 0.062.

For A4C G7U, the self-cleavage amounted to 0.0643.

For the variant U37G A40C, the self-cleavage was 0.163.

As to A1C A32G, the self-cleavage came to 0.18.

With G17C A34G, the self-cleavage worked out at 0.112.

Take G7A A30G: the self-cleavage came to 0.405.

As for U18C G29U, the self-cleavage came to 0.27.

Consider G41C G42C, for which the self-cleavage stood at 0.129.

With A4C C14A, the self-cleavage was 0.33.

In the case of G7C G17U, the self-cleavage amounted to 0.0545.

For G7U G17U, the self-cleavage turned out to be 0.0401.

With G16A G39C, the self-cleavage was determined as 0.141.

Regarding U37G G48C, the self-cleavage is 0.843.

Turning to G36A G39A, the self-cleavage was determined as 0.195.

Regarding A1G C8U, the self-cleavage came out at 0.245.

For C9U G24C, the self-cleavage is 0.0718.

As for C3A G36A, the self-cleavage turned out to be 0.0998.

As to C3A G36U, the self-cleavage came out at 0.0633.

With C9A C20G, the self-cleavage amounted to 0.0801.

In the case of A11U C19G, the self-cleavage is 0.616.

For G36U G47C, the self-cleavage is 0.198.

For the variant C19U C20G, the self-cleavage was found to be 0.0718.

In the case of C26G A33G, the self-cleavage was found to be 0.154.

Take G7C C19G: the self-cleavage worked out at 0.0745.

On to C15U A22G, for which the self-cleavage came to 0.147.

For the variant A10U A32C, the self-cleavage turned out to be 0.983.

On to A35U G38C, for which the self-cleavage came to 0.973.

On to G16A A33C, for which the self-cleavage came to 0.799.

For the variant G17U U18A, the self-cleavage was found to be 0.148.

Turning to G44A G45A, the self-cleavage turned out to be 0.906.

C5G A35U: the self-cleavage was determined as 0.637.

In the case of C5U G16A, the self-cleavage turned out to be 0.584.

For the variant C20G A22C, the self-cleavage was 0.147.

On to C3G C26U, for which the self-cleavage amounted to 0.137.

In the case of G17A G24A, the self-cleavage was determined as 0.118.

Regarding C9G G13A, the self-cleavage amounted to 1.07.

On to G17U A33U, for which the self-cleavage is 0.257.

As for A11U G13A, the self-cleavage came to 0.95.

On to C5U G41A, for which the self-cleavage amounted to 0.214.

As to A1U C27G, the self-cleavage is 0.0626.

Consider A2U C14U, for which the self-cleavage was 0.591.

C3A C8A: the self-cleavage was determined as 0.116.

Regarding G24A A35G, the self-cleavage amounted to 0.0812.

With C20U A32C, the self-cleavage was found to be 0.758.

Turning to C20A G42C, the self-cleavage came to 0.78.

Turning to C21A G48C, the self-cleavage is 0.171.

Take C5U A23C: the self-cleavage is 0.116.

As to C5U A23G, the self-cleavage stood at 0.23.

For the variant A1C A10C, the self-cleavage was found to be 0.0756.

For the variant U37C G38C, the self-cleavage was found to be 0.742.

With C26G U37C, the self-cleavage came to 0.0957.

Consider G39U G44A, for which the self-cleavage was determined as 0.15.
